# Laboratory results reported in PMC12371696.
# Ends that are not written are not given here.
# How the values were obtained:
# [1] = target: Trastuzumab with E5 Ecoil peptides fused at the C-termini of heavy and light chains (TZM-E5); experiment: SEC-MALS; UPLC-SEC-MALS; TZM-Ex mixed with Kx-mRFP at 1:4 molar ratio (2 nmol + 8 nmol), 45 min at room temperature; BEH200 column, 0.2 M potassium phosphate, 0.2 M potassium chloride, 0.02% Tween-20, pH 7.0, 30 °C
# [2] = target: Trastuzumab with E5 Ecoil peptides fused at the C-termini of heavy and light chains (TZM-E5)
stoichiometry N (K5-mRFP per TZM-E5) [1],"tumor fluorescence (total radiant efficiency, area under the curve 3-336 h) after intravenous injection of the preformed TZM-E5/K5-CF750 complex in the SKOV3 xenograft mouse model ([p/s] × h /[uW/cm^2]) [2]",Molecule
4,,K5 Kcoil peptide fused to the N-terminus of monomeric red fluorescent protein (K5-mRFP) (designed binder)
,4.4e+13,KVSALKEKVSALKEKVSALKEKVSALKEKVSALKEGGC(CF750 maleimide) [K5 Kcoil peptide (KVSALKE)5-GGC conjugated to CF750 maleimide near-infrared dye (K5-CF750)]
